Data set [1] deals with the molecule itself. Put plainly: cross-linking; recombinant pcGAS (5 ug), bound to ISD45 dsDNA, alone or with recombinant Rep proteins (5, 10, 15 ug) in cGAMP synthesis buffer (20 mM HEPES pH 7.5, 5 mM MgCl2, 2 mM ATP, 2 mM GTP), 25°C 15 min, then DSS 0.5 mM for 10 min; non-reducing loading buffer, immunoblot.
The target in a further data set is T1, pcGAS full length (pig (porcine), UniProt I3LM39 1-495).
T1 sequence: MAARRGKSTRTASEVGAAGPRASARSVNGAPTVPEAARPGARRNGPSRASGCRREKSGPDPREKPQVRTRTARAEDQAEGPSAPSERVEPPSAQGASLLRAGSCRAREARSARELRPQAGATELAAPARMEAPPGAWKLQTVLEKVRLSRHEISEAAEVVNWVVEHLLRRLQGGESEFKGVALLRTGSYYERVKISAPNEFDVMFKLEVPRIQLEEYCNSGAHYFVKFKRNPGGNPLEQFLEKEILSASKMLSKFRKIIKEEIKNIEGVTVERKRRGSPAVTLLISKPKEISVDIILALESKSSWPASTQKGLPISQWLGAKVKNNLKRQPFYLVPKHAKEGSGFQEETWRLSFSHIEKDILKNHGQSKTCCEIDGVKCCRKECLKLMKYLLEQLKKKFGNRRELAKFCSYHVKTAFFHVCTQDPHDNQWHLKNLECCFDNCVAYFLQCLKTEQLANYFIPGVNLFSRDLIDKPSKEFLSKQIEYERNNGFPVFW
Put plainly: MST; Pull-down: IP lysis buffer 4 h at 4 C (lysates) or NP-40 buffer 6 h at 4 C (recombinant), biotin-HSV60 40 ug/mL; MST buffer not given; phase separation 50-300 mM NaCl. The note with it: protein: recombinant; label: Cy5; blunt.

A further data set has as its target T2, PCV2a Rep (Porcine circovirus 2a, UniProt Q77Q74 1-314).
T2 sequence: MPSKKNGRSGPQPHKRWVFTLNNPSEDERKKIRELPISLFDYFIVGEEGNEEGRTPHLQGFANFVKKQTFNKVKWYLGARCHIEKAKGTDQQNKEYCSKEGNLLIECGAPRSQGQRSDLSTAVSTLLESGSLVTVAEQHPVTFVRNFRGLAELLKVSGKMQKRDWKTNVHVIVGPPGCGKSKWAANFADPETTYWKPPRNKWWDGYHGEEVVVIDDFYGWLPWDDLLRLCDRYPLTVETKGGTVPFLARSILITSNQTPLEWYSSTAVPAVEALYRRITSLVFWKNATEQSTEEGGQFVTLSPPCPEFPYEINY
Described as above. The note with it: protein: recombinant; tags: C-terminal Myc; His6-SUMO removed per Methods; label: Cy5; blunt.

Another data set has as its target SUMO-PCV3 Rep-Myc (Porcine circovirus 3, UniProt A0ACM8RHE8 1-296). Description: pull-down; Pull-down: IP lysis buffer 4 h at 4 C (lysates) or NP-40 buffer 6 h at 4 C (recombinant), biotin-HSV60 40 ug/mL; MST buffer not given; phase separation 50-300 mM NaCl. The following applies: protein: recombinant; tags: His6-SUMO, C-terminal Myc; label: 5'-biotin; blunt.
A further data set deals with T3, SUMO-PCV4 Rep-Myc (Porcine circovirus 4, UniProt A0A7M4CFI7 1-296).
T3 sequence: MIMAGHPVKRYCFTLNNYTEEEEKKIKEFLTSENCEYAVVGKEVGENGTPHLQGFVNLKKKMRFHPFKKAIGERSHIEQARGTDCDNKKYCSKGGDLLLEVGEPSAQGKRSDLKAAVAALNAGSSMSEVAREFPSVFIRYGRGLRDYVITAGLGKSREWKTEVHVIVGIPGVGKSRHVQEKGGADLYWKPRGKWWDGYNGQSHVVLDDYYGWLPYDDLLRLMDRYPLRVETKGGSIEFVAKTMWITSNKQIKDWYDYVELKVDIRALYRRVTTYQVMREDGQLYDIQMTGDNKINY
The description is as above. The following applies: protein: recombinant; tags: His6-SUMO, C-terminal Myc; label: 5'-biotin; blunt.

B1: porcine cGAS (pcGAS), recombinant full-length protein (natural protein)
chain: T1 sequence
notes: cyclic GMP-AMP synthase (cGAS), porcine, full length; identifier not given; also called porcine cyclic GMP-AMP synthase; pcGAS full length; source: recombinant protein, stored in our laboratory
In the case of B1, the binding result in data set [1] was “binds”.

B2: Cy5-HSV60 (dsDNA)
DNA 1: TAAGACACGATGCGATAAAATCTGTTTGTAAAATTTATTAAGGGTACAAATTGCCCTAGC
DNA 2: GCTAGGGCAATTTGTACCCTTAATAAATTTTACAAACAGATTTTATCGCATCGTGTCTTA
With B2, the Kd (commonly the free concentration of one partner at which half of the binding sites on the other are occupied at equilibrium, for simple one-to-one binding) stood at 0.68 µM with pcGAS full length and 11.1 µM in the data set with PCV2a Rep.

B3: biotin-HSV60 (dsDNA)
DNA 1: B2 DNA 1
DNA 2: B2 DNA 2
Turning to B3, the binding result in the data set with SUMO-PCV3 Rep-Myc and with SUMO-PCV4 Rep-Myc was “binds” throughout.
